# Reference: patent publication US20140134176A1 (Pfizer, published 2014)
# Legend:
# human PDGF-BB [1] = biological target: T1, human PDGF-BB (human, UniProt P01127 82-190); assay: cell-based or functional assay
# human PDGF-AA [2] = biological target: T2, human PDGF-AA (human, UniProt P04085 87-211, limits assumed); assay: ELISA
# human PDGF-BB [3] = biological target: T1, human PDGF-BB; assay: SPR (Biacore) competition in solution: MOR8457-mIgG1 serially diluted, mixed with human PDGF-BB, 20 h at 2-8 C, mixture injected over PDGFRβ-hIgG1 captured on anti-human IgG; blocked partner PDGFRβ-hIgG1
# Method: MOR8457-mIgG1 was serially diluted in PBS then mixed with […] of human PDGF-BB and incubated for 20 hours at 2-8° C. to reach equilibrium as indicated by the [brackets]. Each MOR8457-mIgG1 and PDGF-BB dilution mixture was then injected over the surface of PDGFRβ-hIgG1 captured by anti-human IgG1 on a CM5 chip. […] Data shown are from one representative experiment of two independent experiments.
# Because of the complexity of the 2:1 binding stoichiometry, and also to avoid any potential artifacts introduced by sequential binding on the chip, the competitive binding was further confirmed by neutralizing PDGF-BB with MOR8457 in solution as illustrated by the diagram shown in FIG. 5A. MOR8457-mIgG1 was serially diluted in PBS then mixed with […] of human PDGF-BB and incubated for 20 hours at 2-8° C. to reach equilibrium. Each MOR8457-mIgG1 and PDGF-BB dilution mixture shown between [brackets] in FIG. 5A, was then injected over the surface of PDGFRβ-hIgG1 captured by anti-human IgG1 on a CM5 chip. FIG. 5B depicts a graph showing the concentration response curve of MOR8457 inhibition.
# human PDGF-AB [4] = biological target: T3, human PDGF-AB (human, UniProt P04085 87-211, limits assumed); assay: SPR (Biacore 2000), antibody captured via anti-mouse IgG, PDGF injected
# T3 construct: Heterodimer of PDGF-A and PDGF-B, bought; also called huAB; Hu PDGF-AB
# T3 sequence (chain, as listed by the source limits assumed, chain 2 of 2, other chains not shown): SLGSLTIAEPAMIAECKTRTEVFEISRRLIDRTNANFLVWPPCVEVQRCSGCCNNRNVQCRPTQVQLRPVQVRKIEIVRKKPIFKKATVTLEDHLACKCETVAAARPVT
# Method: (§1) Anti-human (A-D, I-K) or anti-mouse (E-H) IgG antibodies were immobilized in flow cells of CM5 sensor chips. 1 μg/mL of MOR8457-IKR-hIgG1-3m (A-D), MOR8457-mIgG1 (E-H) or MOR8457-GL-hIgG1-3m (I-K) was injected independently over the respective anti-human or anti-mouse surface for 10 seconds resulting in a stable anti-PDGF surface between 50-100 RU. Different concentration of PDGF proteins, 0.25, 0.5, and 1 nM, was then injected over the antibody surface for 2 minutes at a flow rate of 100 μl/min for binding. The complex was allowed to dissociate for 10 minutes. The surface was regenerated with a 30 second injection of 10 mM magnesium chloride leaving the surface ready for another round of anti-PDGF antibody capture and PDGF binding kinetics. Each of these three antibodies bound tightly to human (A, E, I), mouse (B, F, J) and rat (C, G, K) PDGF-BB. MOR8457-IKR-hIgG1-3m (D) and MOR8457-mIgG1 (H) bound to human PDGF-AB. Each sensorgram shown is one representative of three independent experiments.
# (§2) In order to test the specificity and cross species reactivity, the binding affinities of three MOR8457 IgG variants, MOR8457-IKR-hIgG1-3m, MOR8457-mIgG1, and MOR8457-GL-hIgG1-3m, to different human PDGF ligands, including human PDGF-AA, -AB, -DD, as well as rat PDGF-BB (all obtained from R&D systems, Minneapolis, Minn.) and mouse PDGF-BB (Invitrogen, Carlsbad, Calif.) were tested. Briefly, anti-human or anti-mouse IgG (GE Healthcare) antibodies were immobilized in adjacent flow cells of a CM5 sensor chip between 8000-10,000 resonance units (RU) using amine coupling as directed by the manufacturer. Antibodies were diluted into PBS-NET (10 mM Phosphate pH 7.4, 287 mM NaCl, 2.7 mM KCl, 3.2 mM EDTA, 0.01% Tween 20) to 1 μg/mL and injected independently over the respective anti-human or anti-mouse surface for 10 seconds resulting in a stable anti-PDGF surface between 50-100 RU. PDGF proteins were diluted to 1 nM in PBS-NET and serially diluted two-fold to 0.25 nM. Each concentration of PDGF was then injected over the antibody surface for 2 minutes at a flow rate of 100 μl/min. The complex was allowed to dissociate for 10 minutes. The surface was regenerated with a 30 second injection of 10 mM magnesium chloride leaving the surface ready for another round of anti-PDGF antibody capture and PDGF binding kinetics.
# human PDGF-BB [5] = biological target: T1, human PDGF-BB; assay: as above
# Method: as §1, §2
# mouse PDGF-BB [6] = biological target: T4, mouse PDGF-BB (mouse, UniProt P31240 82-190); assay: as above
# T4 construct: also called muBB; Mu PDGF-BB
# T4 sequence (P31240 82-190 limits assumed): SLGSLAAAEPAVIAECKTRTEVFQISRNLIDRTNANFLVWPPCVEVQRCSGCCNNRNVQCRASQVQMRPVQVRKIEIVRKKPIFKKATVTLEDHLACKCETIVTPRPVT
# Method: as §1, §2
# rat PDGF-BB [7] = biological target: T5, rat PDGF-BB (rat, UniProt Q05028 74-182); assay: as above
# T5 construct: also called ratBB
# T5 sequence (Q05028 74-182 limits assumed): as the sequence (P31240 82-190 limits assumed) above, with I83V, I102V counted along it
# Method: as §1, §2
# human PDGF-AB [8] = biological target: T3, human PDGF-AB; assay: SPR (Biacore 2000), antibody captured via anti-mouse IgG, PDGF injected; off rate beyond instrument limit
# Method: as §1, §2
# human PDGF-BB [9] = biological target: T1, human PDGF-BB; assay: as above
# Method: as §1, §2
# mouse PDGF-BB [10] = biological target: T4, mouse PDGF-BB; assay: as above
# Method: as §1, §2
# rat PDGF-BB [11] = biological target: T5, rat PDGF-BB; assay: as above
# Method: as §1, §2
# human PDGF-DD = human PDGF-DD (human, UniProt Q9GZP0 250-370, limits assumed); assay: SPR (Biacore), antibody captured
# human PDGF-DD, sequence (Q9GZP0 250-370 limits assumed): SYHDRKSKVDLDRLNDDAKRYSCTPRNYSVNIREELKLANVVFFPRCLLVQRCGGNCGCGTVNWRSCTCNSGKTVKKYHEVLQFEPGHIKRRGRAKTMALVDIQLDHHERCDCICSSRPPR
# Method: as §2, with “kinetics. Kinetic data were double referenced (Myszka et al., 1999, J. Mol. Recognit. 12 279) using scrubber2 software (Bio-Logic Software), then fit to a 1:1 binding model using Biacore evaluation software version 4.1. The results shown were an average of three independent binding studies.” for “kinetics.”
# human PDGF-AA [12] = biological target: T2, human PDGF-AA; assay: SPR (Biacore), antibody captured
# Method: as §2, with “kinetics. Kinetic data were double referenced (Myszka et al., 1999, J. Mol. Recognit. 12 279) using scrubber2 software (Bio-Logic Software), then fit to a 1:1 binding model using Biacore evaluation software version 4.1. The results shown were an average of three independent binding studies.” for “kinetics.”
# T1 sequence (P01127 82-190 limits assumed): as the sequence (chain, as listed by the source limits assumed, chain 2 of 2, other chains not shown) above
binder,measurement,setting,value
"MOR8457-Fab (Fab, V domains shown, Fab format (HuCAL GOLD, expressed in E. coli); also called Fab-MOR8457) VH: EVQLVESGGGLVQPGGSLRLSCAASGFTFSSYAMSWVRQAPGKGLEWVSYISDDGSLKYYADSVKGRFTISRDNSKNTLYLQMNSLRAEDTAVYYCARHPYWYGGQLDLWGQGTLVTVSS VL: SYELTQPPSVSVAPGQTARISCSGDSLGSYFVHWYQQKPGQAPVLVIYDDSNRPSGIPERFSGSNSGNTATLTISGTQAEDEADYYCSAFTHNSDVFGGGTKLTVL","IC50, inhibition of PDGF-BB-induced PDGF-Rβ Tyr751 phosphorylation (PAE PDGF-Rβ cells)",human PDGF-BB [1],0.32 nM
same,binding result,human PDGF-AA [2],no binding
"MOR8457-mIgG1 (antibody, Original MOR8457 VH + mouse wild type IgG1 constant; original VL + mouse wild type lambda constant) heavy: EVQLVESGGGLVQPGGSLRLSCAASGFTFSSYAMSWVRQAPGKGLEWVSYISDDGSLKYYADSVKGRFTISRDNSKNTLYLQMNSLRAEDTAVYYCARHPYWYGGQLDLWGQGTLVTVSSAKTTPPSVYPLAPGSAAQTNSVTLGCLVKGYFPEPVTVTWNSGSLSSGVHTFPAVLQSDLYTLSSSVTVPSSTWPSETVTCNVAHPASSTKVDKKIVPRDCGCKPCICTVPEVSSVFIFPPKPKDVLTITLTPKVTCVVVDISKDDPEVQFSWFVDDVEVHTAQTQPREEQFNSTFRSVSELPIMHQDWLNGKEFKCRVNSAAFPAPIEKTISKTKGRPKAPQVYTIPPPKEQMAKDKVSLTCMITDFFPEDITVEWQWNGQPAENYKNTQPIMDTDGSYFVYSKLNVQKSNWEAGNTFTCSVLHEGLHNHHTEKSLSHSPGK light: SYELTQPPSVSVAPGQTARISCSGDSLGSYFVHWYQQKPGQAPVLVIYDDSNRPSGIPERFSGSNSGNTATLTISGTQAEDEADYYCSAFTHNSDVFGGGTKLTVLQPKSSPSVTLFPPSSEELETNKATLVCTITDFYPGVVTVDWFTKVDGTPVTQGMETTQPSKQSNNKYMASSYLTLTARAWERHSSYSCQVTHEGHTVEFTKSLSRADCS",IC50 (read off the curve),human PDGF-BB [3],~0.04 nM
same,kon,human PDGF-AB [4],5.9e+06 M⁻¹ s⁻¹
same,kon,human PDGF-BB [5],1.12e+07 M⁻¹ s⁻¹
same,kon,mouse PDGF-BB [6],2.48e+07 M⁻¹ s⁻¹
same,kon,rat PDGF-BB [7],1.42e+07 M⁻¹ s⁻¹
same,Kd,human PDGF-AB [8],< 0.01 nM
same,Kd,human PDGF-BB [9],< 0.01 nM
same,Kd,mouse PDGF-BB [10],< 0.01 nM
same,Kd,rat PDGF-BB [11],< 0.01 nM
same,binding result,human PDGF-DD,no binding (tested: 0.25-1 nM PDGF)
same,binding result,human PDGF-AA [12],no binding (tested: 0.25-1 nM PDGF)
